Tests used:
crystal structure = molecular target: the molecule itself; assay: crystal structure
SAXS = molecular target: the molecule itself; assay: SAXS

B1: SFPQ-276–598 (domain or fragment)
chain: EGFKANLSLLRRPGEKTYTQRCRLFVGNLPADITEDEFKRLFAKYGEPGEVFINKGKGFGFIKLESRALAEIAKAELDDTPMRGRQLRVRFATHAAALSVRNLSPYVSNELLEEAFSQFGPIERAVVIVDDRGRSTGKGIVEFASKPAARKAFERCSEGVFLLTTTPRPVIVEPLEQLDDEDGLPEKLAQKNPMYQKERETPPRFAQHGTFEYEYSQRWKSLDEMEKQQREQVEKNMKDAKDKLESEMEDAYHEHQANLLRQDLMRRQEELRRMEELHNQEMQKRKEMQLRQEEERRRREEEMMIRQREMEEQMRRQREESYS
stoichiometry N (crystal structure): 2

B2: SFPQ-276–598/NONO-53–312 heterodimer (complex)
chain 1: EGFKANLSLLRRPGEKTYTQRCRLFVGNLPADITEDEFKRLFAKYGEPGEVFINKGKGFGFIKLESRALAEIAKAELDDTPMRGRQLRVRFATHAAALSVRNLSPYVSNELLEEAFSQFGPIERAVVIVDDRGRSTGKGIVEFASKPAARKAFERCSEGVFLLTTTPRPVIVEPLEQLDDEDGLPEKLAQKNPMYQKERETPPRFAQHGTFEYEYSQRWKSLDEMEKQQREQVEKNMKDAKDKLESEMEDAYHEHQANLLRQDLMRRQEELRRMEELHNQEMQKRKEMQLRQEEERRRREEEMMIRQREMEEQMRRQREESYS
chain 2: EGLTIDLKNFRKPGEKTFTQRSRLFVGNLPPDITEEEMRKLFEKYGKAGEVFIHKDKGFGFIRLETRTLAEIAKVELDNMPLRGKQLRVRFACHSASLTVRNLPQYVSNELLEEAFSVFGQVERAVVIVDDRGRPSGKGIVEFSGKPAARKALDRCSEGSFLLTTFPRPVTVEPMDQLDDEEGLPEKLVIKNQQFHKEREQPPRFAQPGSFEYEYAMRWKALIEMEKQQQDQVDRNIKEAREKLEMEMEAARHEHQVMLM
binding result (SAXS): binds

B3: SFPQ-369–598 (domain or fragment)
chain: HAAALSVRNLSPYVSNELLEEAFSQFGPIERAVVIVDDRGRSTGKGIVEFASKPAARKAFERCSEGVFLLTTTPRPVIVEPLEQLDDEDGLPEKLAQKNPMYQKERETPPRFAQHGTFEYEYSQRWKSLDEMEKQQREQVEKNMKDAKDKLESEMEDAYHEHQANLLRQDLMRRQEELRRMEELHNQEMQKRKEMQLRQEEERRRREEEMMIRQREMEEQMRRQREESYS
stoichiometry N (crystal structure): 2

B4: SFPQ-276–535 (domain or fragment)
chain: EGFKANLSLLRRPGEKTYTQRCRLFVGNLPADITEDEFKRLFAKYGEPGEVFINKGKGFGFIKLESRALAEIAKAELDDTPMRGRQLRVRFATHAAALSVRNLSPYVSNELLEEAFSQFGPIERAVVIVDDRGRSTGKGIVEFASKPAARKAFERCSEGVFLLTTTPRPVIVEPLEQLDDEDGLPEKLAQKNPMYQKERETPPRFAQHGTFEYEYSQRWKSLDEMEKQQREQVEKNMKDAKDKLESEMEDAYHEHQANLL
stoichiometry N (crystal structure): 2
